Legend:
[1] = target: Human Epidermal Growth Factor Receptor 2 (human (endogenous in SKOV-3)) (UniProt P04626); experiment: flow cytometry on cells
[2] = target: encapsulin (MSMEI_5672) from Mycobacterium smegmatis mc^2155 with C-terminal Strep-tag (Mycobacterium smegmatis mc^2155); experiment: AF4-MALS

Substance: ^ZHEREnc{eGFP}: encapsulin nanocompartment with ZHER_(2:342) affibody-decorated shell, loaded with eGFP (complex)
- fold MFI elevation [1]: 62 fold

Substance: eGFP with C-terminal encapsulin localization sequence
- stoichiometry N (eGFP molecules per nanocompartment) [2]: 17

Substance: tandem cytosine deaminase with C-terminal encapsulin localization sequence (enzyme)
- stoichiometry N (tdCD molecules per nanocompartment) [2]: 18.7
